Our source for the kcat/Km, Km and kcat values is patent US20260201347A1, “ARTIFICIAL BIFUNCTIONAL ENZYME COMPRISING A MYELOPEROXIDASE ACTIVITY AND A GLUCOSE OXIDASE ACTIVITY AND APPLICATIONS THEREOF” (UNIVERSITÉ DE BORDEAUX, priority 2022, published 2026).

“And” between values parts separate entries of the source, which are not always exact repeats. Equal entries are not always repeated.

Common to all, as to type: biochemical, Rhodopirellula baltica / Penicillium amagasakiens
Substrate in series [1]: OC[C@H]1OC(O)[C@H](O)[C@@H](O)[C@@H]1O
In words: Coupled active sites, HOCl production from glucose, all other chimeras. Particulars: glucose as substrate, pH 7.5. How it is done: (§1) Each experiment was performed in triplicate.
(§2) The activity of the two active sites was then assessed in conjunction to each other (FIG. 1).
(§3) Briefly, the aim was to measure the production of HOCl from glucose and NaCl as respective substrates of the enzymes, using the APF probe. Two types of kinetics were performed: • i) kinetics at various concentrations of glucose and a fixed concentration of NaCl, and • ii) kinetics at various concentration of NaCl and a fixed concentration of glucose.

Substrate in series [2]: OC[C@H]1OC(O)[C@H](O)[C@@H](O)[C@@H]1O
The series is described as follows: Coupled active sites, HOCl production from glucose, APF assay (Table 9), linker LEKREAEALEKREAEA
Particulars: fixed NaCl 20 mM, pH7.5, pH 7.5. How it is done:
as §1, §2, §3

Substrate in series [3]: OC[C@H]1OC(O)[C@H](O)[C@@H](O)[C@@H]1O
In words: Coupled active sites, HOCl production from glucose, APF assay (Table 9), linker LEKREAEA
The conditions noted are these: other: trimer; fixed NaCl 20 mM, pH7.5; pH 7.5. How it is done:
as §1, §2, §3

B1: RbMPO-GOx chimeras, all other chimeras (Penicillium amagasakiense) (protein)
chain: YLPAQQIDVQSSLLSDPSKVAGKTYDYIIAGGGLTGLTVAAKLTENPKIKVLVIEKGFYESNDGAIIEDPNAYGQIFGTTVDQNYLTVPLINNRTNNIKAGKGLGGSTLINGDSWTRPDKVQIDSWEKVFGMEGWNWDNMFEYMKKAEAARTPTAAQLAAGHSFNATCHGTNGTVQSGARDNGQPWSPIMKALMNTVSALGVPVQQDFLCGHPRGVSMIMNNLDENQVRVDAARAWLLPNYQRSNLEILTGQMVGKVLFKQTASGPQAVGVNFGTNKAVNFDVFAKHEVLLAAGSAISPLILEYSGIGLKSVLDQANVTQLLDLPVGINMQDQTTTTVSSRASSAGAGQGQAVFFANFTETFGDYAPQARDLLNTKLDQWAEETVARGGFHNVTALKVQYENYRNWLLDEDVAFAELFMDTEGKINFDLWDLIPFTRGSVHILSSDPYLWQFANDPKFFLNEFDLLGQAAASKLARDLTSQGAMKEYFAGETLPGYNLVQNATLSQWSDYVLQNFRPNWHAVSSCSMMSRELGGVVDATAKVYGTQGLRVIDGSIPPTQVSSHVMTIFYGMALKVADAILDDYAKSA
notes: pET21a, E. coli; heme and FAD reconstituted; GOx mature part (P81156 19-605)
B1: the kcat/Km in series [1] is 1 M⁻¹ s⁻¹.

B2: RbMPO-LEKREAEALEKREAEA-GOx chimera (Rhodopirellula baltica myeloperoxidase, SEQ ID NO: 10; linker SEQ ID NO: 6; Penicillium amagasakiens glucose oxidase, SEQ … (protein)
chain: MLFWSKRTRKHPGRKRRRLRSEQLESRQLLAADFGGYRHNIYDAEDVNDDGRVSAIDALLVINAMTSETSRDENVFTDVNGDGRRSALDALRVINRIERGDVFPIDTSGDEDLNTLLPEMPSEVRSIDGSGNNPNDHLWGSVGQRLIRMAPAAYGDGISTLAGANRPSAREVSNVLSAMNTSQVLNDRGLSAFVYVWGQFIDHDLGLTESDEHGEAIDISVPEGDLWFDPMGSGEAVIPMTRTPIADGTGTSVGNPAQQFNQITAFIDGSMVYGSDAATAERLRTFAGGRLAISDNGLLPMDESGMVIAGDVRASENVGLTAIQTLFVREHNRLADEIFAADPEATDEEIYQRARLVVASLIQSITYNEFLPALLGQRAMDSYRGYDASVNPGIANEFSTAAFRLGHSTLRDEVGFMSNDGRESKDEMELKDAFFHASMLEETGIDSLLKFDASVQAQEIDLAVVDSLRNFLFGPPGAGGLDLVAMNIQRGRDHGLSDYNTTRQAYGLDRVETFDQITGDVELQQKLASLYGTVDNIDLWVGLMAEDHQHDASVGELTGLIIADQFQRTRDGDRFFYKNVLTDSEVESIERSTLADLIERNTSVDGLQENVFFMQVELRGRVILASSIPPNTMPSEVREEEIRGVSGMAIELIDASGKLVDSTVSDQHGNYRFRALSETGDYQVRLSESGEAMDVLVAHGAERIRGLDFIVLALEKREAEALEKREAEAYLPAQQIDVQSSLLSDPSKVAGKTYDYIIAGGGLTGLTVAAKLTENPKIKVLVIEKGFYESNDGAIIEDPNAYGQIFGTTVDQNYLTVPLINNRTNNIKAGKGLGGSTLINGDSWTRPDKVQIDSWEKVFGMEGWNWDNMFEYMKKAEAARTPTAAQLAAGHSFNATCHGTNGTVQSGARDNGQPWSPIMKALMNTVSALGVPVQQDFLCGHPRGVSMIMNNLDENQVRVDAARAWLLPNYQRSNLEILTGQMVGKVLFKQTASGPQAVGVNFGTNKAVNFDVFAKHEVLLAAGSAISPLILEYSGIGLKSVLDQANVTQLLDLPVGINMQDQTTTTVSSRASSAGAGQGQAVFFANFTETFGDYAPQARDLLNTKLDQWAEETVARGGFHNVTALKVQYENYRNWLLDEDVAFAELFMDTEGKINFDLWDLIPFTRGSVHILSSDPYLWQFANDPKFFLNEFDLLGQAAASKLARDLTSQGAMKEYFAGETLPGYNLVQNATLSQWSDYVLQNFRPNWHAVSSCSMMSRELGGVVDATAKVYGTQGLRVIDGSIPPTQVSSHVMTIFYGMALKVADAILDDYAKSA
notes: 6His (in the pET21a vector behind the XhoI site); made in house; host or cells: E. coli BL21Star (DE3)
Turning to B2, in series [2] (other: dimer/monomer), the Km worked out at 2.02 ± 1.07 mM. Besides, in series [2] (other: excluded), the Km stood at 14.17 ± 4.62 mM, the kcat turned out to be 0.00015 s⁻¹ and the kcat/Km was 0.01 ± 0.004 M⁻¹ s⁻¹. In addition, in series [2] (other: trimer), the Km was determined as 0.77 ± 0.50 mM; the kcat is 0.00137 s⁻¹; the catalytic efficiency (kcat/Km) is 1.7 ± 1.34 M⁻¹ s⁻¹ and 1.77 M⁻¹ s⁻¹.

B3: RbMPO-LEKREAEA-GOx chimera (Rhodopirellula baltica myeloperoxidase, SEQ ID NO: 10; linker SEQ ID NO: 7; Penicillium amagasakiens glucose oxidase, SEQ ID NO: … (protein)
chain: MLFWSKRTRKHPGRKRRRLRSEQLESRQLLAADFGGYRHNIYDAEDVNDDGRVSAIDALLVINAMTSETSRDENVFTDVNGDGRRSALDALRVINRIERGDVFPIDTSGDEDLNTLLPEMPSEVRSIDGSGNNPNDHLWGSVGQRLIRMAPAAYGDGISTLAGANRPSAREVSNVLSAMNTSQVLNDRGLSAFVYVWGQFIDHDLGLTESDEHGEAIDISVPEGDLWFDPMGSGEAVIPMTRTPIADGTGTSVGNPAQQFNQITAFIDGSMVYGSDAATAERLRTFAGGRLAISDNGLLPMDESGMVIAGDVRASENVGLTAIQTLFVREHNRLADEIFAADPEATDEEIYQRARLVVASLIQSITYNEFLPALLGQRAMDSYRGYDASVNPGIANEFSTAAFRLGHSTLRDEVGFMSNDGRESKDEMELKDAFFHASMLEETGIDSLLKFDASVQAQEIDLAVVDSLRNFLFGPPGAGGLDLVAMNIQRGRDHGLSDYNTTRQAYGLDRVETFDQITGDVELQQKLASLYGTVDNIDLWVGLMAEDHQHDASVGELTGLIIADQFQRTRDGDRFFYKNVLTDSEVESIERSTLADLIERNTSVDGLQENVFFMQVELRGRVILASSIPPNTMPSEVREEEIRGVSGMAIELIDASGKLVDSTVSDQHGNYRFRALSETGDYQVRLSESGEAMDVLVAHGAERIRGLDFIVLALEKREAEAYLPAQQIDVQSSLLSDPSKVAGKTYDYIIAGGGLTGLTVAAKLTENPKIKVLVIEKGFYESNDGAIIEDPNAYGQIFGTTVDQNYLTVPLINNRTNNIKAGKGLGGSTLINGDSWTRPDKVQIDSWEKVFGMEGWNWDNMFEYMKKAEAARTPTAAQLAAGHSFNATCHGTNGTVQSGARDNGQPWSPIMKALMNTVSALGVPVQQDFLCGHPRGVSMIMNNLDENQVRVDAARAWLLPNYQRSNLEILTGQMVGKVLFKQTASGPQAVGVNFGTNKAVNFDVFAKHEVLLAAGSAISPLILEYSGIGLKSVLDQANVTQLLDLPVGINMQDQTTTTVSSRASSAGAGQGQAVFFANFTETFGDYAPQARDLLNTKLDQWAEETVARGGFHNVTALKVQYENYRNWLLDEDVAFAELFMDTEGKINFDLWDLIPFTRGSVHILSSDPYLWQFANDPKFFLNEFDLLGQAAASKLARDLTSQGAMKEYFAGETLPGYNLVQNATLSQWSDYVLQNFRPNWHAVSSCSMMSRELGGVVDATAKVYGTQGLRVIDGSIPPTQVSSHVMTIFYGMALKVADAILDDYAKSA
notes: as for B2
For the protein B3, in series [3], the Km is 10.62 ± 8.25 mM, the kcat is 0.000109 s⁻¹ and the catalytic efficiency (kcat/Km) is 0.01 ± 0.011 M⁻¹ s⁻¹.
